Results published in IntAct's records for PubMed 25487150.

Key:
pp1g_human PPP1CC = pp1g_human PPP1CC (UniProt P36873)
pp1b_human PPP1CB = pp1b_human PPP1CB (UniProt P62140)
pp1a_human PPP1CA = pp1a_human PPP1CA (UniProt P62136)
pp11_schpo dis2 [1] = molecular target: pp11_schpo dis2 (UniProt P13681)
pp11_schpo dis2 [2] = molecular target: pp11_schpo dis2 (UniProt P13681); remark: listed apart in the source

Chain of pp11_schpo dis2 (P13681 whole entry): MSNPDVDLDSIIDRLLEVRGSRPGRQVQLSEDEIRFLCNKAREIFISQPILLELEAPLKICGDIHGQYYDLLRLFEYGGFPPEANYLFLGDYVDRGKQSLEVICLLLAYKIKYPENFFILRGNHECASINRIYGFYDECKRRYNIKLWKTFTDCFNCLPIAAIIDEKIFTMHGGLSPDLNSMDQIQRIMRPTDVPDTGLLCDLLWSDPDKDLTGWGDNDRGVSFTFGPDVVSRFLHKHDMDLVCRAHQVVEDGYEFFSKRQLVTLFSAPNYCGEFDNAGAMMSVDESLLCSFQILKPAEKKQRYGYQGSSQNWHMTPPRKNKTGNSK
Chain of Serine/threonine-protein phosphatase 2A 56 kDa regulatory subunit delta 1 isoform (Schizosaccharomyces pombe (strain ATCC 38366 / 972)), Q10428 K379A;V381A;F383A (Q10428 whole entry K379A/V381A/F383A, canonical isoform): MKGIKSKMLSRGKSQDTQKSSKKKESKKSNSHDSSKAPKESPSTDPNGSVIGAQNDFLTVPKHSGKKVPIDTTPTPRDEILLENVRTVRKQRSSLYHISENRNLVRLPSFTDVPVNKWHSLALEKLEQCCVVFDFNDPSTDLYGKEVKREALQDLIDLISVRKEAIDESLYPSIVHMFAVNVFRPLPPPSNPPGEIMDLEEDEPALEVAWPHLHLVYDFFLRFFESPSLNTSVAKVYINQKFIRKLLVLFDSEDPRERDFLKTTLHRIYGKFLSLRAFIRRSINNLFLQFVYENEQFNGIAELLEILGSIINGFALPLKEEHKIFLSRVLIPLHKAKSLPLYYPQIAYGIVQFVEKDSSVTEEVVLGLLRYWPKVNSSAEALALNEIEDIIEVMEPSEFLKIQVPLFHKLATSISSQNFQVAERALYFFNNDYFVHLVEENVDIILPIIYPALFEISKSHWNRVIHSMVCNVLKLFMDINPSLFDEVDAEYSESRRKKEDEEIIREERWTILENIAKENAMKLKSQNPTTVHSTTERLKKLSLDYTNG
Chain of Serine/threonine-protein phosphatase 2A 56 kDa regulatory subunit delta 1 isoform (Schizosaccharomyces pombe (strain ATCC 38366 / 972)), Q10428 G367V (Q10428 whole entry G367V, canonical isoform): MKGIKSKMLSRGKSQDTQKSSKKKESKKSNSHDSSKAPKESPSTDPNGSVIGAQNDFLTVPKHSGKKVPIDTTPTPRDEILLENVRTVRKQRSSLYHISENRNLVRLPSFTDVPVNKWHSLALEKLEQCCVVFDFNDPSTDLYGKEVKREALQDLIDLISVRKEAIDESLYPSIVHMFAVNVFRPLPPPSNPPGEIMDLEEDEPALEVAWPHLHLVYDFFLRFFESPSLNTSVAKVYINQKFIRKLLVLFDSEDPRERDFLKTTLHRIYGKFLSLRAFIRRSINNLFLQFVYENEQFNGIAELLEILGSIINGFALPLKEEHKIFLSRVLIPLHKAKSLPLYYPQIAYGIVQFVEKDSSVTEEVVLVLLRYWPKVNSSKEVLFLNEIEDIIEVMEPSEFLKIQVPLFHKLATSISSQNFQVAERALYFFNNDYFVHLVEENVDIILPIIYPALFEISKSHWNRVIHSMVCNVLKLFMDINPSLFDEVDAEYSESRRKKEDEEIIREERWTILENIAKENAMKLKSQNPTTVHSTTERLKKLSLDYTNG
Chain of Serine/threonine-protein phosphatase 2A 56 kDa regulatory subunit delta 1 isoform (Schizosaccharomyces pombe (strain ATCC 38366 / 972)), Q10428 G367A (Q10428 whole entry G367A, canonical isoform): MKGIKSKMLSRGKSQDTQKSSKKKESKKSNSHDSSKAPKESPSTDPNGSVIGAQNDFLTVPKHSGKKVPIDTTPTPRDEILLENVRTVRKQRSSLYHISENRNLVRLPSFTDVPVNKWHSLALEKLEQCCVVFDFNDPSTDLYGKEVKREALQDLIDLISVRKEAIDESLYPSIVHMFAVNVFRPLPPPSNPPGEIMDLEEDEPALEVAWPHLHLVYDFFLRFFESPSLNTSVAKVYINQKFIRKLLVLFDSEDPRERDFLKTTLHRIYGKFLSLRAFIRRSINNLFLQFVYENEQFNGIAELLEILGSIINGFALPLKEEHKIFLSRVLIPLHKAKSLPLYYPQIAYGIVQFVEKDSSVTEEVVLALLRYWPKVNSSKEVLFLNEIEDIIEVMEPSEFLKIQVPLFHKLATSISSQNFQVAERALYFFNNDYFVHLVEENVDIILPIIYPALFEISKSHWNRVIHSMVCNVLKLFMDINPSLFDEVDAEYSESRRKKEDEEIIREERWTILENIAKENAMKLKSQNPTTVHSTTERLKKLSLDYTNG
Chain of Serine/threonine-protein phosphatase 2A 56 kDa regulatory subunit delta 1 isoform (Schizosaccharomyces pombe (strain ATCC 38366 / 972)), Q10428 G367A;V381A (Q10428 whole entry G367A/V381A, canonical isoform): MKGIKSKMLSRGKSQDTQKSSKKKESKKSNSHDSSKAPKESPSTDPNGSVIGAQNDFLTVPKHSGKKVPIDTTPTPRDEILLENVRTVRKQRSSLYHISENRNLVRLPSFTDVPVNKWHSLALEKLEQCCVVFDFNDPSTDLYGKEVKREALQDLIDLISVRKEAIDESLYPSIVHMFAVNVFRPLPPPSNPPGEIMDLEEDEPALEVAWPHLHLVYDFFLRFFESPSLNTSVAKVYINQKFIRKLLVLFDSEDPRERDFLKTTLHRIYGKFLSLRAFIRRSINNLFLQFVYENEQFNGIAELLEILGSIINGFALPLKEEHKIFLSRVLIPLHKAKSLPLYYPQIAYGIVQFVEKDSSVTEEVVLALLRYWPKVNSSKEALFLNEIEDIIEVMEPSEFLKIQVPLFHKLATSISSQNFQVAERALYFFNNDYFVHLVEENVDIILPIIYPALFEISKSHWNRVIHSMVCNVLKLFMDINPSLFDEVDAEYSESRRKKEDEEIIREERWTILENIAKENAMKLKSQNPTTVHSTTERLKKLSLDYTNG
Chain of pp1a_human PPP1CA (P62136 whole entry): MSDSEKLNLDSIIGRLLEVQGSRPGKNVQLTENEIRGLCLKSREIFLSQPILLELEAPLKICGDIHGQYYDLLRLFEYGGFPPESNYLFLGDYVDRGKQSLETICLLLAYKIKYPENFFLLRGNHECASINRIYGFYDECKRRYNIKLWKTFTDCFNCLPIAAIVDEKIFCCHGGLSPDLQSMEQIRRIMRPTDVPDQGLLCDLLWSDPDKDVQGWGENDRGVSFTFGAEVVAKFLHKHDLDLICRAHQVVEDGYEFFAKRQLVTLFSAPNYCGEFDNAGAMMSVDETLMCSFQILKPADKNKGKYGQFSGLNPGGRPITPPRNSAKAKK
Chain of Serine/threonine-protein phosphatase 2A 56 kDa regulatory subunit delta 1 isoform (Schizosaccharomyces pombe (strain ATCC 38366 / 972)), Q10428 G367V;V381A (Q10428 whole entry G367V/V381A, canonical isoform): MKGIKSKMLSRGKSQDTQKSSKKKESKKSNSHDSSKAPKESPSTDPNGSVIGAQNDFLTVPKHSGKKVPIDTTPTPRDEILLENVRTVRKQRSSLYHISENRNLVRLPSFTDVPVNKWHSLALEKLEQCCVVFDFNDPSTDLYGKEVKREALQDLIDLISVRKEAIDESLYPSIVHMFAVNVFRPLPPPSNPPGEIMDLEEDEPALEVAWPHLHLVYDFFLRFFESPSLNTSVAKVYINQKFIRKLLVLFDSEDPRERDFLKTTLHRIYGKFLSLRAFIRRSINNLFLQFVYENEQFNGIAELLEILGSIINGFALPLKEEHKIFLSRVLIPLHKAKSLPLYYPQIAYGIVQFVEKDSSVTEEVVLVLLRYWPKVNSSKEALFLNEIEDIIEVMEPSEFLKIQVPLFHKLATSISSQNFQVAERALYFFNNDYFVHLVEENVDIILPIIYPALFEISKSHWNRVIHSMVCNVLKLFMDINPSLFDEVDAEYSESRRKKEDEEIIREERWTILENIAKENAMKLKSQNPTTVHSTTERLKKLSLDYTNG
Chain of pp1b_human PPP1CB (P62140 whole entry): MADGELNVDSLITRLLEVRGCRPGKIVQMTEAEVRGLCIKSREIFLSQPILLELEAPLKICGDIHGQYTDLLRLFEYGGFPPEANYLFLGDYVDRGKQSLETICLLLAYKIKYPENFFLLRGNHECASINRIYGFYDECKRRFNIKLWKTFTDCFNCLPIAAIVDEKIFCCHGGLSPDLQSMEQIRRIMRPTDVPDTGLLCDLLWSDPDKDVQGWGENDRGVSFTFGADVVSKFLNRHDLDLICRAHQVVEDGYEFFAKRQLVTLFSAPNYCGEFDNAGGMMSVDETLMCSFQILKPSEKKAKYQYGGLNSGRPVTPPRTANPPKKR
Chain of Serine/threonine-protein phosphatase 2A 56 kDa regulatory subunit delta 1 isoform (Schizosaccharomyces pombe (strain ATCC 38366 / 972)), Q10428 G367A;K379A;V381A;F383A (Q10428 whole entry G367A/K379A/V381A/F383A, canonical isoform): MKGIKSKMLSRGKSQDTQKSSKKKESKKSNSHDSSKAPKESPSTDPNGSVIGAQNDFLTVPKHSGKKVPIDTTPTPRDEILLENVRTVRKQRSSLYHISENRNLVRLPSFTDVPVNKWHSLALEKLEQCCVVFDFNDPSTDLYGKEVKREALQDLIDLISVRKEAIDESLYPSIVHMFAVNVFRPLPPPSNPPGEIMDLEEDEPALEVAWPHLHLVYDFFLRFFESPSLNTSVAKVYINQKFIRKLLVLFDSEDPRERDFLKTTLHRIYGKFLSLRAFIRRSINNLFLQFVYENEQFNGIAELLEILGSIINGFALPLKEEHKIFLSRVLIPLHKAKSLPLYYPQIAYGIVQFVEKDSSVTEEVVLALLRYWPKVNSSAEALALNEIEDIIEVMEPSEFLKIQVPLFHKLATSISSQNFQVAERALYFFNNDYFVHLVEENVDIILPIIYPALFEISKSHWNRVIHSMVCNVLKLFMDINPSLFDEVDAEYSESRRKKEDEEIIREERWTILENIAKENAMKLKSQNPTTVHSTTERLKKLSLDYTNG
Chain of Serine/threonine-protein phosphatase 2A 56 kDa regulatory subunit delta 1 isoform (Schizosaccharomyces pombe (strain ATCC 38366 / 972)), Q10428 S378D (Q10428 whole entry S378D, canonical isoform): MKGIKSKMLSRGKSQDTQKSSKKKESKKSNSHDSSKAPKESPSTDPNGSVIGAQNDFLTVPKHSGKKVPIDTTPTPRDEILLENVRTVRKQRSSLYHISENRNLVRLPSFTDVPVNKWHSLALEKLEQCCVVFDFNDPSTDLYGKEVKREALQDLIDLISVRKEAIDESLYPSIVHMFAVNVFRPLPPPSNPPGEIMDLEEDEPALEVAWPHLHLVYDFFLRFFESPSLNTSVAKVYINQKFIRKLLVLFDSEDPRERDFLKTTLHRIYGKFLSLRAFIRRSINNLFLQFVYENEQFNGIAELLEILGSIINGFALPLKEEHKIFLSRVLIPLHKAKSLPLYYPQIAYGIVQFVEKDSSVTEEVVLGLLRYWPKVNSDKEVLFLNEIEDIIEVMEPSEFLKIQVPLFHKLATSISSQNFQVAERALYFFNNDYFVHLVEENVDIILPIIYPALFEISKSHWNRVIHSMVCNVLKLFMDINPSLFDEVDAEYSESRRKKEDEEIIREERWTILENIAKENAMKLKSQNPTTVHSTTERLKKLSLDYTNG

| Substance | effect of a mutation on the interaction (pp11_schpo dis2 [1]) | effect of a mutation on the interaction (pp11_schpo dis2 [2]) | also measured |
| --- | --- | --- | --- |
| Serine/threonine-protein phosphatase 2A 56 kDa regulatory subunit gamma isoform (Homo sapiens) (from UniProt Q13362) L289A;L290A;V302A;F304A |  |  | effect of a mutation on the interaction (pp1g_human PPP1CC): disrupting interaction strength; effect of a mutation on the interaction (pp1b_human PPP1CB): disrupting interaction strength; effect of a mutation on the interaction (pp1a_human PPP1CA): disrupting interaction strength |
| Serine/threonine-protein phosphatase 2A 56 kDa regulatory subunit delta 1 isoform (Schizosaccharomyces pombe (strain ATCC 38366 / 972)), Q10428 G367V | decreasing interaction strength | disrupting interaction strength |  |
| Serine/threonine-protein phosphatase 2A 56 kDa regulatory subunit delta 1 isoform (Schizosaccharomyces pombe (strain ATCC 38366 / 972)), Q10428 G367A | decreasing interaction strength | disrupting interaction strength |  |
| Serine/threonine-protein phosphatase 2A 56 kDa regulatory subunit delta 1 isoform (Schizosaccharomyces pombe (strain ATCC 38366 / 972)), Q10428 S378D | disrupting interaction strength |  |  |
| Serine/threonine-protein phosphatase 2A 56 kDa regulatory subunit delta 1 isoform (Schizosaccharomyces pombe (strain ATCC 38366 / 972)), Q10428 G367A;V381A | decreasing interaction strength | disrupting interaction strength |  |

Second part, led by results:

| effect of a mutation on the interaction (pp11_schpo dis2 [1]) | effect of a mutation on the interaction (pp11_schpo dis2 [2]) | Substance | also measured |
| --- | --- | --- | --- |
| decreasing interaction strength |  | Serine/threonine-protein phosphatase 2A 56 kDa regulatory subunit delta 1 isoform (Schizosaccharomyces pombe (strain ATCC 38366 / 972)), Q10428 G367V;V381A |  |
| decreasing interaction strength | disrupting interaction strength | Serine/threonine-protein phosphatase 2A 56 kDa regulatory subunit delta 1 isoform (Schizosaccharomyces pombe (strain ATCC 38366 / 972)), Q10428 K379A;V381A;F383A |  |
| disrupting interaction strength |  | Serine/threonine-protein phosphatase 2A 56 kDa regulatory subunit delta 1 isoform (Schizosaccharomyces pombe (strain ATCC 38366 / 972)), Q10428 G367V;K379A;V381A;F383A |  |
| disrupting interaction strength |  | Serine/threonine-protein phosphatase 2A 56 kDa regulatory subunit delta 1 isoform (Schizosaccharomyces pombe (strain ATCC 38366 / 972)), Q10428 G367A;K379A;V381A;F383A |  |
